Laboratory results from US20140056907A1 (Regeneron, published 2014).

T1: mouse ASIC1a (mouse, UniProt Q6NXK8 1-526)
T1 construct: whole, on cells; Expressed on stably transfected 3T3 cells (3T3/mASIC1a); also called mASIC1a
T1 sequence (looked up): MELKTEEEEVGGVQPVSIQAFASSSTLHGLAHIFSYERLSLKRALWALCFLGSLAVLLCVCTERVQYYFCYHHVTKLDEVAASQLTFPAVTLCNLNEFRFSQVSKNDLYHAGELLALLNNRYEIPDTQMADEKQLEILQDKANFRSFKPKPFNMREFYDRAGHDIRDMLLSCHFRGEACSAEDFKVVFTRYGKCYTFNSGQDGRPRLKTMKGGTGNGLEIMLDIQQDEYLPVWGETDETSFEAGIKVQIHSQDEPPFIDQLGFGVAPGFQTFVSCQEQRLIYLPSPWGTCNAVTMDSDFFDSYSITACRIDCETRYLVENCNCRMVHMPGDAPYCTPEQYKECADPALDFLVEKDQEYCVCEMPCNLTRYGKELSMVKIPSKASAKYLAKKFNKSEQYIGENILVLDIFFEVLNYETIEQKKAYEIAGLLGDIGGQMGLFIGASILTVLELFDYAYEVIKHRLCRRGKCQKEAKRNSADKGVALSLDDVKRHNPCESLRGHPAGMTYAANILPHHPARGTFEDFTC

T2: human ASIC1 (human, UniProt P78348 1-528)
T2 construct: Ion channel subunit expressed on 3T3 (3T3/hASIC1) or HEK293 cells (HEK/hASIC1; HEK293 CL:1F10 transient); also called hASIC1; human ASIC1a
T2 sequence: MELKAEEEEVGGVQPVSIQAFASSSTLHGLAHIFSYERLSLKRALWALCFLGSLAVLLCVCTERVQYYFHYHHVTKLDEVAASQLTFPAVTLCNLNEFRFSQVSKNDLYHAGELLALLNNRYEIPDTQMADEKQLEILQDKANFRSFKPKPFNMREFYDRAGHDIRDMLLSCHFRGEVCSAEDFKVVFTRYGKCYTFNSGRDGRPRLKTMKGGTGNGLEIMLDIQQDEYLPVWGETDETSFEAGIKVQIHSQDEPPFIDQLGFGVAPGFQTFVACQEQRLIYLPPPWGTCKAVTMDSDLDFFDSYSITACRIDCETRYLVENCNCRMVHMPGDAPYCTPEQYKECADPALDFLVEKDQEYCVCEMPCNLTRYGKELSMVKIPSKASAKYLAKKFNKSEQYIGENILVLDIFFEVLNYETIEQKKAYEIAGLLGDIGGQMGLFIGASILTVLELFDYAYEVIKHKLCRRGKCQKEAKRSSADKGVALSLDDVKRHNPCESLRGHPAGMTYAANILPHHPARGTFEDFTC


What was measured:
mouse ASIC1a = target: T1, mouse ASIC1a; assay: FACS, 3T3/mASIC1a cells
From the text: To further characterize anti-ASIC1 antibodies, their ability to bind either (a) a mouse fibroblast 3T3 cell line stably transfected to overexpress full length human ASIC1 (3T3/hASIC1; amino acids 1-528 of NCBI accession number NP_{—}001086.2 [SEQ ID NO:401]), (b) a 3T3 cell line stably transfected to over express full length mouse ASIC1a (3T3/mASIC1a; amino acids 1-526 of NCBI accession number NP_{—}033727), or (c) a ND7 cell line (ECACC, #92090903) that is a fusion cell line of mouse neuroblastoma and rat dorsal root ganglia that endogenously expresses rat ASIC1, was determined using flow cytometry (FACS). ND7 cells were differentiated by replacing the culture media with low-serum media (0.5% FBS) containing 1 mM dibutyryl-cAMP (Cat. No. sc-201567A, Santa Cruz Biotechnology, Inc., Santa Cruz, Calif.). FACS binding was tested for some antibodies on both undifferentiated ND7 cells and differentiated ND7 cells.
To perform the FACS binding experiments, adherent cells were collected using 1 mM EDTA in PBS, then washed, and re-suspended in cold PBS containing 5% FBS. For each binding experiment, each anti-ASIC1 antibody (at final concentrations of 10 nM of purified antibodies or 3.3 nM for antibody supernatants for binding to 3T3/hASIC1 cells and 5 nM for binding to 3T3/mASIC1a or ND7 cells) was added to 250,000 cells in 500 μL of PBS with 5% FBS. After incubation for 20 minutes at room temperature, a secondary antibody which recognizes human Fc (Cat. No. 109-136-098, Jackson ImmunoResearch Laboratories, Inc., West Grove, Pa.) or mouse Fc (Cat. No. 550826, BD Biosciences, San Jose, Calif.) and is conjugated to allophycocyanin, was then added to the cell mixture at a final concentration of 13.3 nM. After incubating for 20 minutes on ice, the cells were washed and resuspended in PBS containing 5% FBS, then sorted and analyzed on a flow cytometer (FACSCalibur, BD Biosciences, San Jose, Calif.) to determine relative binding by the candidate antibodies to the tested cell lines. Histograms of cells stained with anti-ASIC1 antibodies were compared with those of cells stained with secondary antibody alone. Percentage of ASIC1 signal over secondary antibody alone was calculated using FlowJo software (Tree Star, Ashland, Oreg.).

human ASIC1 = target: T2, human ASIC1; assay: FACS titration, 3T3/hASIC1 cells

Row | binding result (mouse ASIC1a) | EC50 (human ASIC1) | Binder
1 | binds | 5.4 nM | H3M7102N (antibody, V domains shown, Chimeric: human variable, mouse constant domains; H3M prefix marks the Fc, isotype not spelled out) VH: EVQLLASGGGLVQPGGSLRLSCAASGFTFSSFAMSWVRQAPGKGLEWVSGISGSGGSTYYADSVKGRFTISRDNSKNTLYLQMNSLRAEDTAAYYCAKEAYKWQPWGQGIRVTVSS VL: DIQMTQSPSTLSASVGDRVSITCRASQSISSWLAWYQQKPGKAPKLLIYKASNLDSGVPSRFSGSGSGTDFTLTISSLQPDDFATYYCQQYNSYSYTFGQGTKLEIK
2 | binds | 2.6 nM | H3M6726N (antibody, V domains shown, Chimeric: human variable, mouse constant domains; H3M prefix marks the Fc, isotype not spelled out) VH: EVQLLESGGVLVQPGGSLRLSCAASGFNFNNYDMSWVRQAPGKGLEWVSVISASGRNTYYADSVKGRFTISRDNSKISLYLQMNSLRPEDTAVYYCAKDHLVHYYYGMDVWGQGTTVTVSS VL: DIMMTQSPLSLSVTPGEPASISCRSSQSLLHSNGYNYLDWYLQKSGQSPHLLIYLGSNRASGVPDRFSGSGSGTDFTLKISRVEAEDGGVYYCMQALQTPRTFGQGTKVEIK
